According to US20100168031:

B1: recombinant full-length human ZAP-70 (Zeta chain-associated protein of 70 kD) with N-terminal hexa-histidine tag (protein)
chain: MPDPAAHLPFFYGSISRAEAEEHLKLAGMADGLFLLRQCLRSLGGYVLSLVHDVRFHHFPIERQLNGTYAIAGGKAHCGPAELCEFYSRDPDGLPCNLRKPCNRPSGLEPQPGVFDCLRDAMVRDYVRQTWKLEGEALEQAIISQAPQVEKLIATTAHERMPWYHSSLTREEAERKLYSGAQTDGKFLLRPRKEQGTYALSLIYGKTVYHYLISQDKAGKYCIPEGTKFDTLWQLVEYLKLKADGLIYCLKEACPNSSASNASGAAAPTLPAHPSTLTHPQRRIDTLNSDGYTPEPARITSPDKPRPMPMDTSVYESPYSDPEELKDKKLFLKRDNLLIADIELGCGNFGSVRQGVYRMRKKQIDVAIKVLKQGTEKADTEEMMREAQIMHQLDNPYIVRLIGVCQAEALMLVMEMAGGGPLHKFLVGKREEIPVSNVAELLHQVSMGMKYLEEKNFVHRDLAARNVLLVNRHYAKISDFGLSKALGADDSYYTARSAGKWPLKWYAPECINFRKFSSRSDVWSYGVTMWEALSYGQKPYKKMKGPEVMAFIEQGKRMECPPECPPELYALMSDCWIYKWEDRPDFLTVEQRMRACYYSLASKVEGPPGSTQKAEAACA
B2: ZAP-70 activated by Lck (protein)
chain: B1 chain
B3: recombinant full-length human Bruton's tyrosine kinase (Btk) (protein)
chain: MAAVILESIFLKRSQQKKKTSPLNFKKRLFLLTVHKLSYYEYDFERGRRGSKKGSIDVEKITCVETVVPEKNPPPERQIPRRGEESSEMEQISIIERFPYPFQVVYDEGPLYVFSPTEELRKRWIHQLKNVIRYNSDLVQKYHPCFWIDGQYLCCSQTAKNAMGCQILENRNGSLKPGSSHRKTKKPLPPTPEEDQILKKPLPPEPAAAPVSTSELKKVVALYDYMPMNANDLQLRKGDEYFILEESNLPWWRARDKNGQEGYIPSNYVTEAEDSIEMYEWYSKHMTRSQAEQLLKQEGKEGGFIVRDSSKAGKYTVSVFAKSTGDPQGVIRHYVVCSTPQSQYYLAEKHLFSTIPELINYHQHNSAGLISRLKYPVSQQNKNAPSTAGLGYGSWEIDPKDLTFLKELGTGQFGVVKYGKWRGQYDVAIKMIKEGSMSEDEFIEEAKVMMNLSHEKLVQLYGVCTKQRPIFIITEYMANGCLLNYLREMRHRFQTQQLLEMCKDVCEAMEYLESKQFLHRDLAARNCLVNDQGVVKVSDFGLSRYVLDDEYTSSVGSKFPVRWSPPEVLMYSKFSSKSDIWAFGVLMWEIYSLGKMPYERFTNSETAEHIAQGLRLYRPHLASEKVYTIMYSCWHEKADERPTFKILLSNILDVMDEES

Key:
[1] = target: T1, L(+)-biotinyl-aminohexanoyl-Cys(H)-Asp-Asp-Tyr-Glu-Phe-Leu-NH2 (SEQ ID NO:25)
T1 chain: CDDYEFL

[2] = target: T2, L(+)-biotinyl-aminohexanoyl-Glu-Asp-Glu-Asp-Asp-Tyr-His-Asn-Pro-Gly-Gly-OH (SEQ ID NO:14) (not fully specified)
T2 chain: EDEDDYHNPGG

[3] = target: T3, L(+)-biotinyl-aminohexanoyl-Glu-Glu-Gly-Ala-Pro-Asp-Tyr-Glu-Asn-Leu-Gln-Glu-Leu-Asn (SEQ ID NO:12)
T3 chain: EEGAPDYENLQELN

[4] = target: T4, L(+)-biotinyl-aminohexanoyl-Glu-Ser-Ile-Asp-Asp-Tyr-Val-Asn-Val-Pro-Glu-Gly-OH (SEQ ID NO:13) (not fully specified)
T4 chain: ESIDDYVNVPEG

[5] = target: compounds represented by SEQ ID NO:12, SEQ ID NO:13, SEQ ID NO:14 or SEQ ID NO:25
[6] = target: compounds of SEQ ID NO:12; SEQ ID NO: 13; or SEQ ID NO: 14

Protein | phosphorylation of the peptide by the kinase, time resolved fluorescence resonance energy transfer (Eu-anti-phosphotyrosine / SA-APC, 665 nm) [1] | phosphorylation of the peptide by the kinase, time resolved fluorescence resonance energy transfer (Eu-anti-phosphotyrosine / SA-APC, 665 nm) [2] | phosphorylation of the peptide by the kinase, time resolved fluorescence resonance energy transfer (Eu-anti-phosphotyrosine / SA-APC, 665 nm) [3] | phosphorylation of the peptide by the kinase, time resolved fluorescence resonance energy transfer (Eu-anti-phosphotyrosine / SA-APC, 665 nm) [4] | fluorescence units (TR-FRET phosphorylation assay, 250 nM peptide, 10 nM ZAP-70, 1 µM ATP) [5] | phosphorylation of the peptide with 33P-ATP, biotin capture plate, scintillation counting [2] | phosphorylation of the peptide with 33P-ATP, biotin capture plate, scintillation counting [3] | phosphorylation of the peptide with 33P-ATP, biotin capture plate, scintillation counting [4] | Km (33P-ATP phosphorylation assay, peptide 0.08-20 µM) [6] | Maximal cpm (33P-ATP phosphorylation assay) [6] | fluorescence units (TR-FRET phosphorylation assay, 250 nM peptide, 10 nM ZAP-70 plus 42 nM Lck, 1 µM ATP) [5] | phosphorylation of the peptide by the kinase, time resolved fluorescence resonance energy transfer [2] | phosphorylation of the peptide by the kinase, time resolved fluorescence resonance energy transfer [3] | phosphorylation of the peptide by the kinase, time resolved fluorescence resonance energy transfer [4]
B1 | are phosphorylated by ZAP-70 and by ZAP-70 activated by Lck | are phosphorylated by ZAP-70 and by ZAP-70 activated by Lck | are phosphorylated by ZAP-70 and by ZAP-70 activated by Lck | are phosphorylated by ZAP-70 and by ZAP-70 activated by Lck | 20,000 to 46,000 fluorescence units | – | – | – | – | – | – | – | – | –
B2 | are phosphorylated by ZAP-70 and by ZAP-70 activated by Lck | are phosphorylated by ZAP-70 and by ZAP-70 activated by Lck | are phosphorylated by ZAP-70 and by ZAP-70 activated by Lck | are phosphorylated by ZAP-70 and by ZAP-70 activated by Lck | – | are phosphorylated by ZAP-70 | are phosphorylated by ZAP-70 | are phosphorylated by ZAP-70 | Km values are in the range of from 0.4 to 2.0 µM | Maximal cpm range from 12,000 to 16,000 | 20,000 to 46,000 fluorescence units | – | – | –
B3 | – | – | – | – | – | – | – | – | – | – | – | are hardly phosphorylated by Lck, Btk or IRK | are hardly phosphorylated by Lck, Btk or IRK | are hardly phosphorylated by Lck, Btk or IRK
